Data as given in article doi:10.1101/2025.08.31.673313 (bioRxiv, 2025).

Biological target: wild-type KRAS peptide on HLA-C*08:02, on peptide-pulsed cells (Homo sapiens, HLA-C*08:02)
Assay: flow cytometry on cells

B1: C8K10D5-1 Fab (Fab, V domains shown)
VH: EVQLVESGGGLVQPGRSLRLSCAASGFTFDQYAMHWVRQAPGKGLEWVSGISAYSLSIGYADSVKGRFTISRDNAKNSLYLQMNSLRAEDTAVYYCARGRSEGVYMDGMDIWGSGTLVTVSS
VL: SYVLTQPPSVSVAPGQTARITCGGNNIKYRDVHWYQQKPGQAPVLVVYQDTLRPQGIPERFSGSNSGNMATLTISRVEAGDEADYYCQVWDWDTDHWVFGGGTDLTVL
Question: Does B1 bind?
Answer: Result: no binding (tested: 50 nM Fab)
